Tested on: T1, COc1ccc2c(CC(=O)N3CCC[C@H]3C(=O)N[C@@H](CC(C)C)C(=O)NCC(=O)N[C@@H](CC(C)C)C(=O)N[C@@H](CNc3ccc([N+](=O)[O-])cc3[N+](=O)[O-])C(=O)N[C@@H](C)C(=O)N[C@@H](CCCNC(=N)N)C(N)=O)cc(=O)oc2c1
T1 construct: made in house; host or cells: Sf9 and High Five insect cells
Experiment: Determination of Km values
Assay type: biochemical, human
Conditions: other: MMP-9(MT); 1% DMSO; n = 3; pH 7.5
Experimental: Determination of Km values. […] Substrate concentrations used were 1–10 µM in a total volume of 100 µL of 0.1 M Hepes pH 7.5 containing 10 mM CaCl2, 0.005% Brij-35 and 1.0% DMSO. […] Initial rate experiments were performed as described above to determine enzyme reaction velocities using a LS 50 Luminescence Spectrometer and the FL WinLab Software Package (Perkin Elmer). The Km and s.d values were calculated with Graph Pad Prism 5 using the Michaelis-Mention equation. […] During these experiments, reactions were monitored for only one minute, and initial reaction velocities were determined from the activity curves.

Mag-Trypsin activated recombinant MMP-9 (MMP-9(MT)) (Homo sapiens), sequence (chain, as listed by the source): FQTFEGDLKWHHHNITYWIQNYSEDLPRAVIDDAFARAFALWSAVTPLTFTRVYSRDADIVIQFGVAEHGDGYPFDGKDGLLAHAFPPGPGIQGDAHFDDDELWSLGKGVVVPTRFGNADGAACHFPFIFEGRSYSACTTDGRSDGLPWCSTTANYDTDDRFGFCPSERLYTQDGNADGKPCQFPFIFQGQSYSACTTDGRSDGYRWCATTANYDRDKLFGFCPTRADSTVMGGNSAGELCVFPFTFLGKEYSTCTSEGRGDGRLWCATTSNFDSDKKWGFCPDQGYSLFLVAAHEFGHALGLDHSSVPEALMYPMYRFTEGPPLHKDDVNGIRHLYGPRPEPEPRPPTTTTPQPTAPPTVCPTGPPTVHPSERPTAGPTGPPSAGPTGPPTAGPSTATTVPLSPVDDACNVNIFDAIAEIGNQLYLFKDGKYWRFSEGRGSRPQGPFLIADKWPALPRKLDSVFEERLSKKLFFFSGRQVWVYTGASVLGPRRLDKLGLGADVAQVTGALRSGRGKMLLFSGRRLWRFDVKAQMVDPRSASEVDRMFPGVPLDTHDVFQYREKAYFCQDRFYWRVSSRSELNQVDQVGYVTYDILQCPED

## Mag-Trypsin activated recombinant MMP-9 (MMP-9(MT)) (Homo sapiens)
  Km: 2.7 ± 0.5 µM
